{
  "source": "patent US20230303695A1",
  "about": "(SHANGHAI XBH BIOTECHNOLOGY, published 2023)",
  "binders": {"B1": {"name": "L1-20 (antibody, IgG1, V domains shown)", "VH": "QVQLVESGGGVVQPGRSLRLSCAASGFTFSTYGMHWVRQAPGKGLEWVAVIWDDGSYKYYGDSVKGRFTISRDNSKNTLYLQMNSLRAEDTAVYYCARDGSGWGYAFDIWGQGTLVTVSS", "VL": "DIQLTQSPSSLSASVGDRVTITCQASQDIEWWLNWYQQKPGKAPKLLIYGSPNLETGVPSRFSGSGSGTDFTFTISSLQPEDIATYYCQQYDSFPYTFGQGTKVEIK", "notes": "also called L1-20-IgG1"}, "B2": {"name": "L2-10 (antibody, V domains shown)", "VH": "EVQLVESGGGLEQPGGSLRLSCAASGFTFRDYAMTWVRQAPGKGLEWVSSISGSGGSTYYADSVKGRFTISRDNSKNTLYLQMNSLRAEDTAIYYCARGEYSSGWPSWFDPWGQGTLVTVSS", "VL": "DIQMTQSPSSLSASVGDRVTITCRASRTVGTFLNWYQQKPGKAPKALILHTSILEGGVPSRFSGSGSGTDFTLTISSLQPEDIATYYCQQSHDVPRTFGQGTKVEIK", "notes": "also called L2-10-IgG1"}, "B3": {"name": "L2-01 (antibody, V domains shown)", "VH": "B2 VH with A24G, S57N", "VL": "EIVLTQSPSSLSASVGDRVTISCRASRTVGTFLNWYQQRPGKPPQALILGVSILEGGVSSRFSGAGSGTEFSLTISSLQPEDIGTYYCQQSHDVPRTFGQGTKVDLR", "notes": "Expressed in CHO cells; also called L2 antibody; L2-01-IgG1"}, "B4": {"name": "KLRC1 alone on CT26 cells (receptor)", "chain": "not shown", "notes": "whole, on cells; also called KLRC1 monomer"}, "B5": {"name": "KLRD1 alone on CT26 cells (receptor, UniProt Q13241 1-179, looked up)", "chain": "MAVFKTTLWRLISGTLGIICLSLMSTLGILLKNSFTKLSIEPAFTPGPNIELQKDSDCCSCQEKWVGYRCNCYFISSEQKTWNESRHLCASQKSSLLQLQNTDELDFMSSSQQFYWIGLSYSEEHTAWLWENGSALSQYLFPSFETFNTKNCIAYNPNGNALDESCEDKNRYICKQQLI", "notes": "whole, on cells; also called KLRD1 monomer"}, "B6": {"name": "L1-01 (antibody, V domains shown)", "VH": "B1 VH with L115M", "VL": "DIQLTQSPSSLSASVGDRVTITCQASQDISEYLNWYQHKPGKAPNPLVFDAANLETGVPPRFSATGSGTDFSLTITSLQPEDFATYYCQQYDSFPYTFGQGTRLDIK", "notes": "Expressed in CHO cells; also called L1 antibody; L1-01-IgG1"}},
  "key": {"[1]": {"target": "T1, recombinant human IGSF8 extracellular domain tagged by a human Fc region (IGSF8-hFc) (human, UniProt Q969P0 28-579, biotin label in Examples 17, 18 and 28 (site not given))", "T1 construct": "also called IGSF8-Fc fusion protein; IGSF8-hFc-biotin; not shown: human Fc region", "T1 sequence": "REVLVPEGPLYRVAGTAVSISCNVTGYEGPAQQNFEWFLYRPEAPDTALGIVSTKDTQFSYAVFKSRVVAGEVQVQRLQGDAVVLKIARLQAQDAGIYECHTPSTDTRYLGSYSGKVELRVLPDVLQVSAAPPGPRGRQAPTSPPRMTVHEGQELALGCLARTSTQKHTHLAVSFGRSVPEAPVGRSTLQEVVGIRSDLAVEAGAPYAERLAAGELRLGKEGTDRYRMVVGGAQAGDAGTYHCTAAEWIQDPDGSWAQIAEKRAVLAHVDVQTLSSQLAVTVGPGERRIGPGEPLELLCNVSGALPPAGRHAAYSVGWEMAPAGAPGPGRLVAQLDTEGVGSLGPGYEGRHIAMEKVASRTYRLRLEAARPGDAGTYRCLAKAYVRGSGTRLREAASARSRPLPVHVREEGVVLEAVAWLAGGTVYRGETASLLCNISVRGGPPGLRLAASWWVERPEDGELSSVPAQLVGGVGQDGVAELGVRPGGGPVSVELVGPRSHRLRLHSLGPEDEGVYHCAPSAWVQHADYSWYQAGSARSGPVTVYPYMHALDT", "experiment": "SPR, Ab captured", "method": "The binding affinities of the L1 and L2 antibodies to IGSF8 recombinant protein were determined by surface plasmon resonance (SPR). Briefly, anti-human Fab antibody was imobilized on acarboxyl-derivatized SPR chip surface, and the antibodies were captured on the resulting surface at 5 μg/ml for 30 seconds."}, "[2]": {"target": "T2, human IGSF8 expressed on the cell surface (human, UniProt Q969P0 28-613)", "T2 construct": "whole, on cells; also called human IGSF8 on CT26 cells; IGSF8 on MC38 cells", "T2 sequence (looked up)": "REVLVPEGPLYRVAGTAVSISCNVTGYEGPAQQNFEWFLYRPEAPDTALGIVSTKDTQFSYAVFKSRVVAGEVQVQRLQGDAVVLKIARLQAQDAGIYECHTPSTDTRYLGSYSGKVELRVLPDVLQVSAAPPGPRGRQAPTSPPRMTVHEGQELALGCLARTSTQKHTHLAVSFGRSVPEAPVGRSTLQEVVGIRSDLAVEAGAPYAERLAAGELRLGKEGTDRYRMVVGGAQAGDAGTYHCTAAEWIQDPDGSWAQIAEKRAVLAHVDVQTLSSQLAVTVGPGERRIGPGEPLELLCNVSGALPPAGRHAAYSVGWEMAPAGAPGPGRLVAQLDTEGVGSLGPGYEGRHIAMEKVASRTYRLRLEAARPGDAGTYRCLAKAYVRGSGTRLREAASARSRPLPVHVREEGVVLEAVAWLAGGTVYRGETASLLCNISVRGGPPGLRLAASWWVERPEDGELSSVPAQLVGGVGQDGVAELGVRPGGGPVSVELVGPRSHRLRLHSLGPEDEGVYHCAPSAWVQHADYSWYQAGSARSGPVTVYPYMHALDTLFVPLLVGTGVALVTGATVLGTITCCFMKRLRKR", "experiment": "FACS on CT26 cells expressing IGSF8", "method": "(§1) To test cross reactivity of the L1, and L2 antibodies, CT26 cells with forced human, cynomolgus monkey, or mouse IGSF8 expression were generated by lentiviral delivery. For antibody binding assays based on cell-expressed antigens, 100,000 cells overexpressing the antigen were washed with PBS buffer containing 2% FBS, and then incubated with 100 μL of antibodies or IgG of different concentrations for 30 minutes on ice. Cells were then washed twice with wash buffer, and incubated with 100 μL of 1:100 anti-human Fc-PE antibody for 15 minutes on ice. Cells were washed twice with wash buffer and analyzed on a FACS analyzer (CytoFlex, Beckman). The MFI was plotted vs. antibody concentration. The EC50 cell binding potenct was calculated using nonlinear regression curve fit."}, "[3]": {"target": "T3, cynomolgus monkey IGSF8 expressed on CT26 cells (cynomolgus monkey, UniProt Q969P0 28-613 (human entry))", "T3 sequence": "T2 sequence (looked up) with A14T, V63I, V125A, M147L, T148M, K167Q, S187A, F554L", "experiment": "FACS on CT26 cells expressing IGSF8", "method": "as §1"}, "[4]": {"target": "T4, mouse IGSF8 expressed on CT26 cells (mouse, UniProt Q8R366 26-611)", "T4 construct": "whole, on cells", "T4 sequence (looked up)": "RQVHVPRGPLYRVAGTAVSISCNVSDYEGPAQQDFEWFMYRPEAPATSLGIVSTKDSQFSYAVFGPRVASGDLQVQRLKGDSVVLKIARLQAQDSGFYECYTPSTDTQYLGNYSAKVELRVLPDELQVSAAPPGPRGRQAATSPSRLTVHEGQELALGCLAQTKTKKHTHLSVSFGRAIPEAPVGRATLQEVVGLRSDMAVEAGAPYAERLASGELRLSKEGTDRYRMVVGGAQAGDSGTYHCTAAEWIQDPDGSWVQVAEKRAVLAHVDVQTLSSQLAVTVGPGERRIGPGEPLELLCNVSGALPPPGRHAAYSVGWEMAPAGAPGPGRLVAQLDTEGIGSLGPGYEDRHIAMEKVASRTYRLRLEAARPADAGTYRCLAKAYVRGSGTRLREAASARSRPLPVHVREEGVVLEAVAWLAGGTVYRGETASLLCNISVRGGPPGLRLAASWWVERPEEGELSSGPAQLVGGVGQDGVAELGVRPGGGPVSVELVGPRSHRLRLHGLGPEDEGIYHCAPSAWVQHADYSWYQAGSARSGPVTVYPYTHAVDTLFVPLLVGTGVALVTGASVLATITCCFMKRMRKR", "experiment": "FACS on CT26 cells expressing IGSF8", "method": "as §1"}, "[5]": {"target": "T1, recombinant human IGSF8 extracellular …", "experiment": "FACS blocking assay: antibody titrated against biotinylated IGSF8-hFc (1 ug/mL) binding to KIR3DL2 on CT26 cells, Streptavidin-PE", "method": "CT26 cells with forced ectopic/exogenous human KIR3DL2 expression were incubated with biotinylated IGSF8-hFc recombinant protein (1 μg/mL) in the presence of the antibodies L1-20, L2-10, and a isotype control antibody. The binding of IGSF8-hFc-biotin to the Ct26 cells was determined using Streptavidin-PE by flow cytometry analysis (FIG. 39)."}, "[6]": {"target": "T4, mouse IGSF8 expressed on CT26 cells", "experiment": "FACS on CT26 cells expressing mouse IGSF8, anti-human Fc-PE", "method": "as §1"}, "[7]": {"target": "T1, recombinant human IGSF8 extracellular …", "experiment": "FACS, IGSF8-hFc on CT26 cells, MFI normalized to Thy1.1", "method": "KLRC1 also contains a ITIM motif in its intracellular domain, and was known to be a inhibitory receptor of NK or CD8⁺ T cells as part of a heterodimer with KLRD1 on the cell surface. […] Specifically, 100,000 CT26 cells overexpressing the antigens (KIRs or KLRs) were washed with PBS buffer containing 2% FBS, and incubated with 100 μL IGSF8 recombinant proteins or antibodies (5 μg/mL) for 30 minutes on ice. Cells were then washed twice with wash buffer, and incubated with 100 μL of 1:100 anti-human Fc-PE antibody for 15 minutes on ice. Cells were washed twice with wash buffer and analyzed on a FACS analyzer (CytoFlex, Beckman). In these experiments, the mean fluorescence intensity (MFI) of IGSF8 binding to different CT26 cells were normalized by the expression of different KLRs on CT26 cells using an anti-thy1.1 mAb via flow cytometry."}},
  "note": "Positions count from the first letter of the chain named.",
  "data": [
    {"binder": "B1", "values": [
      {"measurement": "Kd", "setting": "[1]", "result": 0.0214, "unit": "nM"},
      {"measurement": "koff", "setting": "[1]", "result": "7.02e-06", "unit": "s⁻¹"},
      {"measurement": "kon", "setting": "[1]", "result": 329000, "unit": "M⁻¹ s⁻¹"},
      {"measurement": "EC50", "setting": "[2]", "result": 0.0537, "unit": "mg/L"},
      {"measurement": "EC50", "setting": "[3]", "result": 0.0268, "unit": "mg/L"},
      {"measurement": "EC50", "setting": "[4]", "result": 0.0275, "unit": "mg/L"},
      {"measurement": "IC50 (read off the curve)", "setting": "[5]", "result": "~0.3", "unit": "mg/L"}
    ]},
    {"binder": "B2", "values": [
      {"measurement": "Kd", "setting": "[1]", "result": 0.256, "unit": "nM"},
      {"measurement": "koff", "setting": "[1]", "result": "3.68e-05", "unit": "s⁻¹"},
      {"measurement": "kon", "setting": "[1]", "result": 144000, "unit": "M⁻¹ s⁻¹"},
      {"measurement": "EC50", "setting": "[2]", "result": 0.145, "unit": "mg/L"},
      {"measurement": "EC50", "setting": "[3]", "result": 0.041, "unit": "mg/L"},
      {"measurement": "binding result", "setting": "[6]", "result": "no binding (tested: 40 ug/ml)"},
      {"measurement": "IC50 (read off the curve)", "setting": "[5]", "result": "~0.4", "unit": "mg/L"}
    ]},
    {"binder": "B3", "values": [
      {"measurement": "EC50", "setting": "[2]", "result": 0.473, "unit": "mg/L"},
      {"measurement": "EC50", "setting": "[3]", "result": 0.212, "unit": "mg/L"},
      {"measurement": "binding result", "setting": "[6]", "result": "no binding (tested: 40 ug/ml)"}
    ]},
    {"binder": "B4", "values": [
      {"measurement": "binding result", "setting": "[7]", "result": "no binding"}
    ]},
    {"binder": "B5", "values": [
      {"measurement": "binding result", "setting": "[7]", "result": "no binding"}
    ]},
    {"binder": "B6", "values": [
      {"measurement": "EC50", "setting": "[2]", "result": 0.206, "unit": "mg/L"},
      {"measurement": "EC50", "setting": "[3]", "result": 0.224, "unit": "mg/L"},
      {"measurement": "EC50", "setting": "[4]", "result": 0.538, "unit": "mg/L"}
    ]}
  ]
}
